| Protein | amplitude of single turnover DNA unwinding (processivity) [nM] |
| --- | --- |
| NS3 helicase (NS3h), wild type, hepatitis C virus (protein) AVDFVPVESMETTMRSPVFTDNSSPPAVPQTFQVAHLHAPTGSGKSTKVPAAYAAQGYKVLVLNPSVAATLGFGAYMSKAHGIDPNIRTGVRTITTGAPITYSTYGKFLADGGCSGGAYDIIICDECHSTDSTTILGIGTVLDQAETAGARLVVLATATPPGSVTVPHPNIEEVALSSTGEIPFYGKAIPIETIKGGRHLIFCHSKKKCDELAAKLSGLGLNAVAYYRGLDVSVIPTSGDVIVVATDALMTGFTGDFDSVIDCNTCVTQTVDFSLDPTFTIETTTVPQDAVSRSQRRGRTGRGRMGIYRFVTPGERPSGMFDSSVLCECYDAGCAWYELTPAETSVRLRAYLNTPGLPVCQDHLEFWESVFTGLTHIDAHFLSQTKQAGDNFPYLVAYQATVCARAQAPPPSWDQMWKCLIRLKPTLHGPTPLLYRLGAVQNEVTTTHPITKYIMACMSADLEVVT | 0.35 ± 0.01 |
| NS3h KDA (D543K/H545D/Q549A mutant NS3 helicase) (protein) AVDFVPVESMETTMRSPVFTDNSSPPAVPQTFQVAHLHAPTGSGKSTKVPAAYAAQGYKVLVLNPSVAATLGFGAYMSKAHGIDPNIRTGVRTITTGAPITYSTYGKFLADGGCSGGAYDIIICDECHSTDSTTILGIGTVLDQAETAGARLVVLATATPPGSVTVPHPNIEEVALSSTGEIPFYGKAIPIETIKGGRHLIFCHSKKKCDELAAKLSGLGLNAVAYYRGLDVSVIPTSGDVIVVATDALMTGFTGDFDSVIDCNTCVTQTVDFSLDPTFTIETTTVPQDAVSRSQRRGRTGRGRMGIYRFVTPGERPSGMFDSSVLCECYDAGCAWYELTPAETSVRLRAYLNTPGLPVCQDHLEFWESVFTGLTHIKADFLSATKQAGDNFPYLVAYQATVCARAQAPPPSWDQMWKCLIRLKPTLHGPTPLLYRLGAVQNEVTTTHPITKYIMACMSADLEVVT | 0.21 ± 0.01 |
